Values joined by “and” are separate entries in the source; they are usually repeats but may differ in a detail not shown here. Equal entries are not always repeated.
How the values were obtained:
[1] = molecular target: T1, recombinant E.coli-expressed cynomolgus IL-13 (cynomolgus, UniProt Q5I6E4 21-132 (Macaca thibetana entry)); assay: cell-based or functional assay
T1 chain: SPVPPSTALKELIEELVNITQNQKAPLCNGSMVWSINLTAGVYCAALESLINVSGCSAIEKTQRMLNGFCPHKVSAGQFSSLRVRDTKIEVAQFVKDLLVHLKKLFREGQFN

[2] = molecular target: T2, alanine-scan peptide 1 (parental sequence, no substitution) (human, N-terminal biotin); assay: peptide ELISA: immobilised biotinylated peptide, titrated parental 6A1 (mAb named in legend paragraph 137, not on the sheet)
T2 construct: also called parental peptide
T2 peptide: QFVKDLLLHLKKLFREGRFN

alanine-scan peptide 63 = molecular target: T3, alanine-scan peptide 63 (human, N-terminal biotin); assay: as above
T3 construct: also called K103A peptide
T3 peptide: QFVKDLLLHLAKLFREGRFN

alanine-scan peptide 65 = molecular target: T4, alanine-scan peptide 65 (human, N-terminal biotin); assay: as above
T4 construct: also called L105A peptide
T4 peptide: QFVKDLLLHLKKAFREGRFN

alanine-scan peptide 66 = molecular target: T5, alanine-scan peptide 66 (human, N-terminal biotin); assay: as above
T5 construct: also called F106A peptide
T5 peptide: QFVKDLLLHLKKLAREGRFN

[3] = molecular target: T6, recombinant E.coli-expressed human IL-13 (human, UniProt P35225 35-146); assay: sandwich ELISA: E.coli-expressed human IL-13 captured by goat anti-human IL-13 polyclonal, titrated 6A1, anti-mouse IgG-HRP
T6 construct: Untagged E.coli material, bought (Cambridge Bioscience) or made in-house (CA); also called hIL-13; human IL13 (CA)

[4] = molecular target: T6, recombinant E.coli-expressed human IL-13; assay: cell-based or functional assay
[5] = molecular target: T7, recombinant E.coli-expressed human IL-4 (human, UniProt P05112 25-153); assay: sandwich ELISA: human IL-4 captured by goat anti-human IL-4 polyclonal, titrated antibody (positive control)
T7 sequence (looked up): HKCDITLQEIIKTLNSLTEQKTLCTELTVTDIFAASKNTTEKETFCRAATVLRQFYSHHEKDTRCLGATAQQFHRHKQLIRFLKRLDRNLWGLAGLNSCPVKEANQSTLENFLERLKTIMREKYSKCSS

B1: mouse monoclonal antibody 6A1 (antibody, mouse IgG1, V domains shown)
VH: EIQLQQSVAELVRPGASVRLSCTASGFYIKDTYMHWVIQRPEQGLEWIGTIDPANGNTKYVPKFQGKATITADTSSNTAYLRLSSLTSEDTAIYYCARSIYDDYHYDDYYAMDYWGQGTSVTVSS
VL: DVLMTQTPLSLPVSLGDQASISCRSSQNIVHINGNTYLEWYLQKPGQSPKLLIYKISDRFSGVPDRFSGSGSGTDFTLKISRVEAEDLGVYYCFQGSHVPWTFGGGTKLEIK
notes: Murine IgG1/kappa from hybridoma; also called mAb 6A1; 6A1 parental mAb
- Mean ND50 for 2 assays, TF-1 bioassay [1]: 0.078 µg/mL
- EC50 (read off the curve) [2]: ~0.02 µg/mL and ~0.03 µg/mL
- EC50 (read off the curve) (alanine-scan peptide 63): ~0.02 µg/mL
- EC50 (read off the curve) (alanine-scan peptide 65): ~0.03 µg/mL
- EC50 (read off the curve) (alanine-scan peptide 66): ~0.03 µg/mL
- EC50 (read off the curve) [3]: ~0.03 µg/mL

B2: chimaeric 6A1 monoclonal antibody (antibody, human IgG1, V domains shown)
VH: B1 VH
VL: B1 VL
- Mean ND50 for 2 assays, TF-1 bioassay [4]: 0.119 µg/mL

B3: anti-human IL4 mAb (antibody, V domains shown)
VH: QVQLQQSGPELVKPGASVKISCKASGYSFTSYWIHWIKQRPGQGLEWIGMIDPSDGETRLNQRFQGRATLTVDESTSTAYMQLRSPTSEDSAVYYCTRLKEYGNYDSFYFDVWGAGTLVTVSS
VL: DIQMTQSPASLSVSVGDTITLTCHASQNIDVWLSWFQQKPGNIPKLLIYKASNLHTGVPSRFSGSGSGTGFTLTISSLQPEDIATYYCQQAHSYPFTFGGGTKLEIKR
- EC50 (read off the curve) [5]: ~0.03 µg/mL
